First the molecules themselves.
B1: I-1521: Ac-PL3-Asp-nLeu-B5-Asp-Glu-Ala-Ala-Phe-Gln-S8-Phe-BztA-Gln-NH2 (peptide)
peptide: Ac-[αAllylPro]D[Nle][B5(5)]DEAAFQ[S8]F[Bta]Q-NH2
modifications: staple 1-4, 4-11; also: staple isomer, earlier eluting HPLC peak
B2: I-1524: Ac-PL3-Asp-nLeu-B5-Asp-Glu-Ala-Ala-Phe-Hse-S8-Phe-BztA-Gln-NH2 (peptide)
peptide: Ac-[αAllylPro]D[Nle][B5(5)]DEAAF[hSer][S8]F[Bta]Q-NH2
modifications: staple 1-4, 4-11; also: staple isomer, earlier eluting HPLC peak
B3: I-1517: Ac-PL3-Asp-Asn-B5-Asp-Asp-Ala-Ala-Phe-Leu-PyrS2-3Thi-BztA-Gln-NH2 (peptide)
peptide: Ac-[αAllylPro]DN[B5(5)]DDAAFL[PyrS2″][3Thi][Bta]Q-NH2
modifications: staple 1-4, 4-11
B4: I-1522: Ac-PL3-Asp-nLeu-B5-Asp-Glu-Ala-Ala-Phe-Gln-S8-Phe-BztA-Gln-NH2 (peptide)
peptide: Ac-[αAllylPro]D[Nle][B5(5)]DEAAFQ[S8]F[Bta]Q-NH2
modifications: staple 1-4, 4-11
B5: I-1518: Ac-PL3-Asp-Asn-B5-Asp-Asp-Ala-Ala-Phe-Leu-PyrS2-3Thi-BztA-Hse-NH2 (peptide)
peptide: Ac-[αAllylPro]DN[B5(5)]DDAAFL[PyrS2″][3Thi][Bta][hSer]-NH2
modifications: staple 1-4, 4-11
B6: I-1525: Ac-PL3-Asp-nLeu-B5-Asp-Glu-Ala-Ala-Phe-Hse-S8-Phe-BztA-Gln-NH2 (peptide)
peptide: Ac-[αAllylPro]D[Nle][B5(5)]DEAAF[hSer][S8]F[Bta]Q-NH2
modifications: staple 1-4, 4-11
B7: I-1523: Ac-PL3-Asp-nLeu-B5-Asp-Glu-Ala-Ala-Phe-Leu-S8-Phe-BztA-Gln-NH2 (peptide)
peptide: Ac-[αAllylPro]D[Nle][B5(5)]DEAAFL[S8]F[Bta]Q-NH2
modifications: staple 1-4, 4-11
B8: I-2224 (peptide)
peptide: Ac-[αAllylPro]D[tBuAla][B5(3)]D[Phe(3-COOH)]AAFL[PyrS2″][3Thi][Phe(3-Cl)]Q-NH2
modifications: staple 1-4, 4-11
B9: I-2226 (peptide)
peptide: Ac-[αAllylPro]D[tBuAla][B5(3)]D[Phe(3-COOH)]AAFL[PyrS2″][2F3MeF][Phe(3-Cl)]S-NH2
modifications: staple 1-4, 4-11
B10: I-2172 (peptide)
peptide: Ac-[αAllylPro]N[Cha][B5(5)]DQ[Lys(iPr)]AFN[PyrS2″]Y[Bta][hSer]-NH2
modifications: staple 1-4, 4-11
B11: I-2174 (peptide)
peptide: Ac-[αAllylPro]N[Cha][B5(5)]DQ[Lys(iPr)]A[Phe(4-CONH2)]N[PyrS2″]F[Bta][hSer]-NH2
modifications: staple 1-4, 4-11
B12: I-2171 (peptide)
peptide: Ac-[αAllylPro]N[Cha][B5(5)]DQ[Lys(iPr)]AFN[PyrS2″]Q[Bta][hSer]-NH2
modifications: staple 1-4, 4-11
B13: I-1721 (peptide)
peptide: Ac-[αAllylPro][AspSH][tBuAla][B5]DDAAFN[PyrS2][Phe(2-Cl)][Bta]Q-NH2
modifications: staple 1-4, 4-11; not fully specified
B14: I-383 (peptide)
peptide: XDAXDEAAFVXXXQ
modifications: not fully specified; N-terminal Ac; PL3 at 1, B5 at 4, S8 at 11 (staples 1-4 and 4-11 by olefin metathesis); 2pyrA at 12; BztA at 13; C-terminal NH2
B15: I-2164 (peptide)
peptide: Ac-[αAllylPro]N[Cha][B5(5)]DQ[Lys(iPr)]AFN[PyrS2″][Phe(3-CONH2)][Bta]Q-NH2
modifications: staple 1-4, 4-11
B16: I-2175 (peptide)
peptide: Ac-[αAllylPro]D[tBuAla][B5(5)]DDAAFN[PyrS2″][3Thi]WQ-NH2
modifications: staple 1-4, 4-11
B17: I-2165 (peptide)
peptide: Ac-[αAllylPro]N[Cha][B5(5)]DQ[Lys(iPr)]AFL[PyrS2″]F[Bta][hSer]-NH2
modifications: staple 1-4, 4-11
B18: I-1705 (peptide)
peptide: Ac-[αAllylPro]D[tBuAla][B5(16)]D[TfeGA]AAFL[PyrS2″][3Thi][Bta]N-NH2
modifications: staple 1-4, 4-11
B19: I-1715 (peptide)
peptide: Ac-[αAllylPro]D[tBuAla][B5(4)]D[TfeGA]AAFL[PyrS2″][3Thi][Bta]N-NH2
modifications: staple 1-4, 4-11; also: -CH=CH- in each staple reduced to -CH2-CH2-
B20: I-1706 (peptide)
peptide: Ac-[αAllylPro]D[tBuAla][B5(4)]D[TfeGA″]AAFL[PyrS2″][3Thi][Bta]T-NH2
modifications: staple 1-4, 4-11; reading uncertain
B21: I-2173 (peptide)
peptide: Ac-[αAllylPro]N[Cha][B5(5)]DQ[Lys(iPr)]A[Phe(2-CONH2)]N[PyrS2″]F[Bta][hSer]-NH2
modifications: staple 1-4, 4-11
B22: I-1708 (peptide)
peptide: Ac-[αAllylPro]D[tBuAla][B5(4)]D[TfeGA]AAFL[PyrS2″][3Thi][Bta][Phe(3-CONH2)]-NH2
modifications: staple 1-4, 4-11
B23: I-2222 (peptide)
peptide: Ac-[αAllylPro]D[tBuAla][B5(3)]D[Phe(3-COOH)]AAFL[PyrS2″][2F3MeF][Phe(4-Cl)]S-NH2
modifications: staple 1-4, 4-11
B24: I-2228 (peptide)
peptide: Ac-[αMeP]D[tBuAla][Aib]DDAAFQ[Aib][3Thi][Bta]H-NH2
SMILES: CC(=O)N1CCC[C@@]1(C)C(=O)N[C@@H](CC(=O)O)C(=O)N[C@@H](CC(C)(C)C)C(=O)NC(C)(C)C(=O)N[C@@H](CC(=O)O)C(=O)N[C@@H](CC(=O)O)C(=O)N[C@@H](C)C(=O)N[C@@H](C)C(=O)N[C@@H](Cc1ccccc1)C(=O)N[C@@H](CCC(N)=O)C(=O)NC(C)(C)C(=O)N[C@@H](Cc1ccsc1)C(=O)N[C@@H](Cc1csc2ccccc12)C(=O)N[C@@H](Cc1c[nH]cn1)C(N)=O
B25: I-1707 (peptide)
peptide: Ac-[αAllylPro]D[tBuAla][B5(4)]D[TfeGA]AAFL[PyrS2″][3Thi][Bta][Phe(2-CONH2)]-NH2
modifications: staple 1-4, 4-11
B26: I-2169 (peptide)
peptide: Ac-[αAllylPro]N[Cha][B5(5)]DQ[Lys(iPr)]AFN[PyrS2″][Phe(4-CONH2)][Bta][hSer]-NH2
modifications: staple 1-4, 4-11
B27: I-2163 (peptide)
peptide: Ac-[αAllylPro]N[Cha][B5(5)]DQ[Lys(iPr)]AFL[PyrS2″][Phe(3-CONH2)][Bta]Q-NH2
modifications: staple 1-4, 4-11
B28: I-2166 (peptide)
peptide: Ac-[αAllylPro]N[Cha][B5(5)]DQ[Lys(iPr)]AFL[PyrS2″][Phe(3-CONH2)][Bta][hSer]-NH2
modifications: staple 1-4, 4-11
B29: I-2227 (peptide)
peptide: Ac-[αAllylPro]D[tBuAla][B5(3)]D[Phe(3-COOH)]QAFL[PyrS2″][2F3MeF][Phe(3-Cl)]A-NH2
modifications: staple 1-4, 4-11
B30: I-2223 (peptide)
peptide: Ac-[αAllylPro]D[tBuAla][B5(3)]D[Phe(3-COOH)]QAFL[PyrS2″][2F3MeF][Phe(4-Cl)]A-NH2
modifications: staple 1-4, 4-11
B31: I-2167 (peptide)
peptide: Ac-[αAllylPro]N[Cha][B5(4)]DQ[Lys(iPr)]AFN[PyrS2″]F[Bta][hSer]-NH2
modifications: staple 1-4, 4-11
B32: I-2170 (peptide)
peptide: Ac-[αAllylPro]N[Cha][B5(5)]DQ[Lys(iPr)]AFN[PyrS2″]N[Bta][hSer]-NH2
modifications: staple 1-4, 4-11
B33: I-1717 (peptide)
peptide: Ac-[αAllylPro]D[tBuAla][B5(5)]D[TfeGA]AAFL[PyrS2″][3Thi][Bta][Phe(2-CONH2)]-NH2
modifications: staple 1-4, 4-11; also: staples hydrogenated: -CH=CH- reduced to -CH2-CH2-
B34: I-2168 (peptide)
peptide: Ac-[αAllylPro]N[Cha][B5(4)]DQ[Lys(iPr)]AFN[PyrS2″][Phe(2-CONH2)][Bta][hSer]-NH2
modifications: staple 1-4, 4-11
B35: I-1718 (peptide)
peptide: Ac-[αAllylPro]D[tBuAla][B5(5)]D[TfeGA]AAFL[PyrS2″][3Thi][Bta][Phe(3-CONH2)]-NH2
modifications: staple 1-4, 4-11; also: staples hydrogenated: -CH=CH- reduced to -CH2-CH2-
B36: I-1716 (peptide)
peptide: Ac-[αAllylPro]D[tBuAla][B5(4)]D[TfeGA]AAFL[PyrS2″][3Thi][Bta]T-NH2
modifications: staple 1-4, 4-11; also: -CH=CH- in each staple reduced to -CH2-CH2-

Starred links: 1 amine or outer side, 2 acyl side, 3 side chain; linkers in the order of their positions; H or OH if unused. Positions of bridges follow the written chain, without caps; N, C: chain ends. Non-standard residues stand in square brackets, D forms with d. Primed or numbered codes have the meaning given here. PyrS2″ = (S)-3-amino-1-((pent-4-en-1-yloxy)carbonyl)pyrrolidine-3-carboxylic acid (stapling residue), C=CCCCOC(=O)N1CC[C@@](N[*:1])(C(=O)[*:2])C1; B5(16) = 2-amino-2-(pent-4-en-1-yl)hept-6-enoic acid = 2,2-bis(4-pentenyl)glycine (stitching residue), C=CCCCC(CCCC=C)(N[*:1])C(=O)[*:2]; B5(4) = 2,2-bis(4-pentenyl)glycine = 2-amino-2-(pent-4-en-1-yl)hept-6-enoic acid (stitching residue), C=CCCCC(CCCC=C)(N[*:1])C(=O)[*:2]; B5(5) = 2,2-bis(4-pentenyl)glycine, 2-amino-2-(pent-4-en-1-yl)hept-6-enoic acid (stitching residue), C=CCCCC(CCCC=C)(N[*:1])C(=O)[*:2]; TfeGA = (S)-2-amino-3-((carboxymethyl)(2,2,2-trifluoroethyl)amino)propanoic acid, O=C([C@H](CN(CC(=O)[*:3])CC(F)(F)F)N[*:1])[*:2]; PyrS2 = (S)-3-amino-1-((pent-4-en-1-yloxy)carbonyl)pyrrolidine-3-carboxylic acid, C=CCCCOC(=O)N1CC[C@@](N[*:1])(C(=O)[*:2])C1; B5(3) = 2,2-bis(4-pentenyl)glycine (stitching residue), C=CCCCC(CCCC=C)(N[*:1])C(=O)[*:2]; AspSH = (S)-2-amino-4-mercapto-4-oxobutanoic acid, O=C(C[C@H](N[*:1])C(=O)[*:2])S[*:3]; B5 = 2-amino-2-(pent-4-en-1-yl)hept-6-enoic acid, C=CCCCC(CCCC=C)(N[*:1])C(=O)[*:2]; Phe(3-CONH2) = NC(=O)c1cccc(C[C@H](N)C(=O)O)c1; Phe(3-COOH) = N[C@@H](Cc1cccc(C(=O)O)c1)C(=O)O; Phe(4-CONH2) = NC(=O)c1ccc(C[C@H](N)C(=O)O)cc1; 2F3MeF = Cc1cccc(C[C@H](N[*:1])C(=O)[*:2])c1F; Phe(2-CONH2) = NC(=O)c1ccccc1C[C@H](N)C(=O)O; Phe(3-Cl) = N[C@@H](Cc1cccc(Cl)c1)C(=O)O; Phe(4-Cl) = N[C@@H](Cc1ccc(Cl)cc1)C(=O)O; Phe(2-Cl) = N[C@@H](Cc1ccccc1Cl)C(=O)O; Bta = N[C@@H](Cc1csc2ccccc12)C(=O)O; Lys(iPr) = CC(C)NCCCC[C@H](N)C(=O)O; αAllylPro = C=CC[C@@]1(C(=O)O)CCCN1; tBuAla = CC(C)(C)C[C@H](N)C(=O)O; 3Thi = N[C@@H](Cc1ccsc1)C(=O)O; Cha = N[C@@H](CC1CCCCC1)C(=O)O; S8 = C=CCCCCCC[C@](C)(N)C(=O)O; αMeP = C[C@@]1(C(=O)O)CCCN1; TfeGA″ = not defined here; hSer = N[C@@H](CCO)C(=O)O; Nle = CCCC[C@H](N)C(=O)O; Aib = CC(C)(N)C(=O)O

One assay has as its target full-length beta-Catenin (Uniprot ID P35222) (Homo sapiens (Human)) (UniProt P35222). Put plainly: fluorescence polarization competition; displacement of 5FAM-TCF4(10-53) from full-length beta-catenin.
Target sequence in this assay (P35222 whole entry): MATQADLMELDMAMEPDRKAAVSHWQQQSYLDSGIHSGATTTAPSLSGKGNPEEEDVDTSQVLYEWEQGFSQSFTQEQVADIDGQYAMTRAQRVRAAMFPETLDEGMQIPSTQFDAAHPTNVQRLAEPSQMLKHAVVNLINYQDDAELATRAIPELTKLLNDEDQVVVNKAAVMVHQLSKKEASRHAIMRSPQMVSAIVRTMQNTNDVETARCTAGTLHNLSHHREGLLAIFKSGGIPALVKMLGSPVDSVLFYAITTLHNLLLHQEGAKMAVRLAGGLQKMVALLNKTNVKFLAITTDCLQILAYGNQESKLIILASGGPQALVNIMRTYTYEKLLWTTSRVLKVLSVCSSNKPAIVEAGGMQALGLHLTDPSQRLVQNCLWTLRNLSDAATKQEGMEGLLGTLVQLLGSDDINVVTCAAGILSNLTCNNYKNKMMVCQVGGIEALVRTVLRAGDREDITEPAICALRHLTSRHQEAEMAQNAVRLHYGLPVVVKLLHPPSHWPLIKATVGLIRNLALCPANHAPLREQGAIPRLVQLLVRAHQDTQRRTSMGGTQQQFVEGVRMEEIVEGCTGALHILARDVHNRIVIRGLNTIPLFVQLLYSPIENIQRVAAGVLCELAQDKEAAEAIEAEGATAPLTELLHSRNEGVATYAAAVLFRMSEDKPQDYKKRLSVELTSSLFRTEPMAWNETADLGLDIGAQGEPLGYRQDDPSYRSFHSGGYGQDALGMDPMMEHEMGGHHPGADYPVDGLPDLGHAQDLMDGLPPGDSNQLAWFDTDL
For the molecule B1, the IC50 worked out at 16 nM.

In the case of B2, the IC50 is 17 nM.

Regarding B3, the IC50 was found to be 32 nM.

B4 came in with an IC50 of 6 nM.

For the molecule B5, the IC50 was 23 nM.

Molecule B6 yielded an IC50 of 22 nM.

Molecule B7 came in with an IC50 of 29 nM.

The target is the same in another assay. Put plainly: fluorescence polarization competition; peptide titrated against 10 nM full-length beta-catenin + 10 nM 5FAM-TCF4(10-53).
In the case of B8, the IC50 was found to be 14 nM.

Regarding B9, the IC50 is 97 nM.

Consider B10, for which the half-inhibitory concentration (IC50) turned out to be 10000 nM.

Regarding B11, the IC50 was 10000 nM.

Consider B12, for which the IC50 came out at 10000 nM.

Take B13: the half-inhibitory concentration (IC50) stood at 139 nM.

B14: the IC50 stood at 5000 nM.

As to B15, the IC50 turned out to be 1180 nM.

Regarding B16, the IC50 came to 19 nM.

With B17, the IC50 is 441 nM.

For B18, the IC50 came out at 9 nM.

On to B19, for which the IC50 stood at 95 nM.

B20: the IC50 was 24 nM.

On to B21, for which the IC50 was found to be 3070 nM.

Take B22: the IC50 stood at 29 nM.

In the case of B23, the IC50 was found to be 84 nM.

For B24, the concentration for half-maximal inhibition (IC50) is 2140 nM.

B25: the IC50 stood at 19 nM.

In the case of B26, the half-maximal inhibitory concentration (IC50) is 10000 nM.

Take B27: the IC50 amounted to 3720 nM.

Take B28: the 50% inhibitory concentration (IC50) amounted to 1590 nM.

For B29, the IC50 was 47 nM.

Consider B30, for which the half-inhibitory concentration (IC50) was 50 nM.

Consider B31, for which the IC50 came to 199 nM.

On to B32, for which the IC50 came out at 10000 nM.

In the case of B33, the IC50 amounted to 249 nM.

Regarding B34, the IC50 is 212 nM.

For B35, the IC50 is 382 nM.

With B36, the IC50 worked out at 224 nM.

Values taken from patent US20240116985A1, “STAPLED PEPTIDES AND METHODS THEREOF” (priority 2020, published 2024).
